In test [1] the target is TSFLCmychis knobless fiber protein (adenovirus serotype 5 (Ad5); Moloney Murine Leukemia Virus) (UniProt P11818). Briefly: antibody-mediated virus capture on 9E10-coated plates, read out by GFP expression in 293.HissFv.rec cells (FACS).
For test [2], the target named is wild-type Ad5 fiber (adenovirus serotype 5 (Ad5)) (UniProt P11818). The description is as above.
Test [3] concerns the target anti-His single-chain antibody (scFv) artificial receptor displayed on 293.HissFv.rec cells. Briefly: cell-based or functional assay.

Bounds are passed on as bounds.

As for anti-Myc MoAb 9E10 (antibody), the figures for the percent functional virus bound (relative to binding to 1D6.14) in test [1] and in test [2] were 2.3% and 0.2%, respectively.
As for “TSFLCmychis knobless fiber protein (from UniProt P11818 1-403; P03385 514-553)”, the gene transfer (EGFP expression) by AdGFP-TSFLCmychis into 293.HissFv.rec cells in the presence of the anti-fiber knob antibody in test [3] is > 10%.

For the origin of these results see patent US20030082146A1.
